Assay [1] addresses canine PD-1 (canine). The assay is described as follows: flow cytometry; row 1*10^4; Anti-mouse IgGFc-Alexa Fluor 647(1:500). (A flow cytometer gives signals particle by particle.)
For assay [2], the target named is human BTLA (human) (UniProt Q7Z6A9). Described as above.
In assay [3] the target is canine PD-1 (canine). The experiment in a line: flow cytometry; row 1*10^5; Anti-mouse IgGFc-Alexa Fluor 647(1:500).
Assay [4] addresses human BTLA (human) (UniProt Q7Z6A9). The description is as above.
Assay [5] concerns the target canine PD-1 (canine). The assay is described as follows: flow cytometry; row 1*10^3; Anti-mouse IgGFc-Alexa Fluor 647(1:500).
For assay [6], the target named is human BTLA (human) (UniProt Q7Z6A9). The assay is described as above.

UniProt Q7Z6A9, sequence (Q7Z6A9 31-157 limits assumed): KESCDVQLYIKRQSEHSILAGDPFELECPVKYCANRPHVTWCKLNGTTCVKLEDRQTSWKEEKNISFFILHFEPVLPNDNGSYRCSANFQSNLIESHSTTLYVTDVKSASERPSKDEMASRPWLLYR

For NC, the percent of cells in the gate in the assay with canine PD-1 (canine) [1] was determined as 0.068%; with human BTLA (human) [2], 1.2%; with canine PD-1 (canine) [3], 0.273%; with human BTLA (human) [4] it was 0.841%; with canine PD-1 (canine) [5], 0.155%; with human BTLA (human) [6], 0.406%.
